B2: HIG-1-Flag (human HIG-1 polypeptide with a Flag tag downstream, made in E. coli as GST-HIG-1-Flag, GST cleaved off with PreScission Protease) (other, UniProt Q9Y241 1-93, looked up)
chain: MSTDTGVSLPSYEEDQGSKLIRKAKEAPFVPVGIAGFAAIVAYGLYKLKSRGNTKMSIHLIHMRVAAQGFVVGAMTVGMGYSMYREFWAKPKP
notes: Expressed from pGST-HIG-1-Flag (pGEX 6P-1); also called HIG-1-Flag protein; not shown: Flag tag downstream of HIG-1
B3: monoclonal antibody produced by hybridoma ISK-MMH-TK2 (antibody, V domains shown)
VH: DVQLQDSGPGLVKPSQTVSLTCTVTGISITTGNFRWSWIRQFPGNKLEWIGYIYYSGTITYNPSLTSRTTITRDTSKNQFFLEMNSLTAEDTATYYCARELYGYGYFDVWAAGTTVTVSS
VL: DVVMTQIPLSLPVSLGDQASISCRSTQSLVHSNGNTYLHWFLQKPGQSPKLLIYKVSNRFSGVPDRFSGSGSGTDFTLKISRVEAEDLGVYFCSQSKYVPRTFGGGTKLEIKR
notes: used as hybridoma culture supernatant; The whole entries are named; they hold leader and primer-derived residues, X and *; also called FERM BP-11266

Experiment [1] concerns the target B2. Put plainly: competitive ELISA, coated HIG-1-Flag, soluble HIG-1-Flag as competitor. Here is the method: Specifically, the HIG-1-Flag obtained in Example 2 as a solid-phase antigen was coated at a concentration of 2.5 μg/mL (50 mM carbonate buffer solution, pH 9.6, Sigma, No. C3041) in an amount of 50 μL per well, onto a plate at room temperature for 1 hour. Washing was performed 3 times with PBS-T, and then blocking was conducted with PBS (10% FBS-PBS) containing 10% FBS for 1 hour. After washing was performed 3 times with PBS-T, the PBS-T diluent of the antibody culture supernatant obtained in Example 1 was mixed with a diluted solution of a competitive substance (serial dilution with PBS-T) and reacted at room temperature for 1 hour. The reaction mixture was placed in a plate in an amount of 50 W., per well and allowed to stand for 1 hour at room temperature. […] After reaction, the 405 nm absorbance was measured.
These antibodies were both capable of quantitatively measuring a HIG-1-Flag in the range of 0.7 to 6.2 ng/mL. The dissociation constant Kd of the monoclonal antibody to a HIG-1-Flag was calculated with reference to “Antibody engineering; A Practical Approach” (edited by McCafferty J., et al.), Chapter 4, 77-97, IRL Press Oxford.

The target in experiment [2] is B3. Briefly: competitive ELISA: HIG-1-Flag coated at 2.5 µg/mL, ISK-MMH-TK2 culture supernatant (diluted 3,200-fold) premixed with soluble HIG-1-Flag as competing agent, AP-labelled anti-mouse IgG, A405nm. The protocol:
Specifically, the HIG-1-Flag obtained in Example 2 as a solid-phase antigen was coated at a concentration of 2.5 μg/mL (50 mM carbonate buffer solution, pH 9.6, Sigma, No. C3041) in an amount of 50 μL per well, onto a plate at room temperature for 1 hour. Washing was performed 3 times with PBS-T, and then blocking was conducted with PBS (10% FBS-PBS) containing 10% FBS for 1 hour. After washing was performed 3 times with PBS-T, the PBS-T diluent of the antibody culture supernatant obtained in Example 1 was mixed with a diluted solution of a competitive substance (serial dilution with PBS-T) and reacted at room temperature for 1 hour. The reaction mixture was placed in a plate in an amount of 50 W., per well and allowed to stand for 1 hour at room temperature. […] As competitive substances, a HIG-1-Flag (on which 3-fold serial dilution was performed 8 times from 0.167 μg/mL), KLH (on which 3-fold serial dilution was performed 8 times from 100 μg/mL), or GST (on which 3-fold serial dilution was performed 8 times from 100 μg/mL) was used. After washing was performed using PBS-T 3 times, the alkaline phosphatase-labeled secondary antibody (anti-mouse IgG) diluted 1,000-fold with 10% FBS-PBS-T was placed in an amount of 50 per well and allowed to stand at room temperature for 1 hour. […] After reaction, the 405 nm absorbance was measured.
(In general: In an ELISA, binding on a coated surface is turned into a signal by an enzyme label.)

B1: monoclonal antibody produced by hybridoma ISK-MMH-TK1 (antibody, V domains shown)
VH: EVQLQQSGPELVKPGASVKISCKTSGYTFTKYTMHWVKQSHGKSLEWIGGINPNNGGSRYDQKFRGKATLTVDKSSSTAYMEFRSLTSEDSAVYYCARDFVYWGQGTLVTVSA
VL: DVLMTQTPLSLPVSLGDQASISCRSSQSIVHSNGNTYLEWYLQKPGQSPKLLIYKVSNRFSGVPDRFSGSGSGTDFTLKISRVEAEDLGVYYCFQGSHVPWTFGGGTKLEIKR
notes: used as hybridoma culture supernatant; The whole entries are named; they hold leader and primer-derived residues, X and * that are not part of the mature antibody; also called FERM BP-11267
For the molecule B1, the Kd in experiment [1] was determined as 220 pM.

In the case of B2, in experiment [2], the “IC50 (read off the curve)” value is about 2 ng/mL.

In experiment [1], B3 showed a dissociation constant Kd of 170 pM. That is a sub-nanomolar value.

What is called Kd is the constant that tells how readily two partners part at equilibrium. Higher therefore signals lower affinity.
